Assay results as given in PMC12312386, “Multiple transactivation domains of EZH2 bind to the TAZ2 domain of p300 and stimulate the acetyltransferase function of p300” (Biochemical Journal, 2025).
Where “and” joins values, the source holds several entries; their conditions need not be identical. Equal values may be shown once.

B5: p300 TAZ2 domain, untagged (p300_(TAZ2)) (domain or fragment, human, UniProt Q09472 1722-1812, looked up)
chain: AWTQSPGDSRRLSIQRCIQSLVHACQCRNANCSLPSCQKMKRVVQHTKGCKRKTNGGCPICKQLIALCCYHAKHCQENKCPVPFCLNIKQK
notes: TAZ2 domain of human p300, aa 1722-1812, with a tryptophan substituted at A1723; Uniformly 15N-labeled for NMR, unlabeled in mass photometry; they are printed there only as p300_(TAZ2); also called 15N-labeled p300_(TAZ2); source: E. coli Rosetta-2 (DE3) pLysS, purified (glutathione agarose, TEV cleavage, cation exchange or heparin)

Columns and labels:
Settings in all cases: both partners purified
[1] = target: B5; assay: NMR titration; 1H,15N HSQC of 50–100 μM 15N-labeled p300_(TAZ2), unlabeled peptide titrated; 298 K; 50 mM MES pH 6.5, 150 mM NaCl, 5 mM DTT
GST-p300_(TAZ2) = target: T1, GST-p300_(TAZ2) (human, UniProt Q09472 1722-1812, tryptophan substituted at A1723); assay: mass photometry; 20 nM GST-p300_(TAZ2) with EZH2_(TAD1-TAD2) (5 μM) or EZH2_(TAD1-TAD2-TAD3) (1 μM); room temperature; 50 mM Tris pH 7.5, 150 mM NaCl, 5 mM DTT
T1 construct: TAZ2 domain of human p300, aa 1722-1812, with a tryptophan substituted at A1723; pGEX-4T-1 vector with an additional TEV cleavage site; Dimeric in mass photometry (~80 kDa); also called GST-fusion of p300 TAZ2; source: E. coli Rosetta-2 (DE3) pLysS, purified (glutathione agarose, cation exchange or heparin)
T1 sequence (looked up): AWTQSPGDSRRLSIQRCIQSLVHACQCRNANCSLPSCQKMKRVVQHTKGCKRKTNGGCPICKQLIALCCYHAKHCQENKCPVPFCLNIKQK

[2] = target: T2, GST-EZH2_(TAD1) (aa 142-160 of EZH2) (human, UniProt Q15910 142-160); assay: mass photometry; 20 nM GST-EZH2_(TAD1) with p300_(TAZ2) (0.1 μM); room temperature; 50 mM Tris pH 7.5, 150 mM NaCl, 5 mM DTT
T2 construct: EZH2, human, aa 142-160, made by deletion from the aa 142-231 construct in pGEX-6P-1; Dimeric in mass photometry (~70 kDa); Limits differ from the synthetic EZH2_(TAD1) peptide (142-154); source: E. coli Rosetta-2 (DE3) pLysS, purified (glutathione agarose, Ni-NTA)
T2 chain (looked up): DGTFIEELIKNYDGKVHGD

B1: EZH2_(TAD2) peptide (aa 167-185 of EZH2) (peptide, UniProt Q15910 167-185, looked up)
peptide: NDEIFVELVNALGQYNDDD
notes: source: synthetic peptide (SynPeptide Co. Ltd.)
binding result [1]: binds

B2: EZH2_(TAD1-TAD2-TAD3) (aa 142-231 of EZH2) with C-terminal 6xHis tag (domain or fragment)
chain: not shown
notes: EZH2, human, aa 142-231, holds TAD1, TAD2 and TAD3; pGEX-6P-1 vector; also called triple EZH2_(TAD1-TAD2-TAD3); source: E. coli Rosetta-2 (DE3) pLysS, purified (glutathione agarose, PreScission cleavage, Ni-NTA)
stoichiometry N (GST-p300_(TAZ2)): 6 GST-p300_(TAZ2) per EZH2_(TAD1-TAD2-TAD3)

B3: EZH2_(TAD1) peptide (aa 142-154 of EZH2) (peptide, UniProt Q15910 142-154, looked up)
peptide: DGTFIEELIKNYD
notes: as for B1
binding result [1]: binds

B4: EZH2_(TAD3) peptide (aa 220-231 of EZH2) (peptide, UniProt Q15910 220-231, looked up)
peptide: SDKIFEAISSMF
notes: as for B1
binding result [1]: binds

B5
stoichiometry N [2]: 1 p300_(TAZ2) per GST-EZH2_(TAD1) dimer and 2 p300_(TAZ2) per GST-EZH2_(TAD1) dimer
